According to patent US20240026407A1, “MODIFICATION OF SAPONINS” (GLAXOSMITHKLINE BIOLOGICALS SA, priority 2020, published 2024):

Experiments:
Type in all cases: biochemical, Quillaja saponaria
[1] = Experiment 5-2: screening of additional glucosidases for deglycosylation with QS-18 in crude bark extract (80%) at pH 6 and 35 deg C; details: CBE 80%, pH 6, 35 deg C, 18 hours; UV HPLC
In short: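 Clarified glucosidase lysate (prepared at pH 6) was incubated with pH 6-adjusted crude bark extract at 35 deg C with shaking for 18 hours. Reactions were quenched with MeCN containing 2% AcOH and hexanophenone, then analysed by UV HPLC.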

[2] = Experiment 5-3: screening of additional glucosidases for deglycosylation with QS-18 in treated bark extract (80%) at pH 6 and 35 deg C; details: TBE 80% (QS-21 approx. 4 g/L), pH 6, 35 deg C; UV HPLC
Description: Experiment 5-1 was repeated, replacing CBE with Treated Bark Extract (TBE) at pH 6. TBE was prepared from CBE by PVPP treatment and concentration, to provide TBE with a QS-21 concentration of approximately 4 g/L. TBE was adjusted to pH 6 by dropwise addition of 2M NaOH with stirring.

[3] = Experiment 5-1: screening of additional glucosidases for deglycosylation with purified QS-18 (0.04 mg/ml) at pH 7.5 and 30 deg C; details: pH 7.5, 30 degrees C, 18 hours, LCMS/MS
Description: The 94 additional genes, together with positive control (DNA encoding SEQ ID No. 262) and negative control, were transformed, expressed, lysed and reacted in the same manner as described above for Experiment 4-1, except the reaction was incubated at 30 degrees C. for 18 hours.
Samples were analysed by LCMS/MS according to the procedure in Experiment 4-1.

Row | Molecule | Experiment 5-2 % conv [1] [%] | Experiment 5-3 % conv [2] [%] | Experiment 5-1 % conv [3] [%]
1 | 871 (protein, listed as Dactylellina haptotyla) MLDESVSREIEETLAQLTLEEKISLLAGKDMWRTVPIPDKQVPSIKTSDGPSGARGDSFTGGTKAAFFPSGISMGATFNPELAYEVGQFIGDEVKSKSASVLLAPTACCHRSPLGGRNFESYSEDPLLSGKMASAYIRGVQSKNVAATMKHYAANEQETWRLHVDETIDETTLREIYLKPFEIAMREGRPWAVMSAYNIINGEHCDSNSLTLKQVLRGEWKYEGLVMSDWFGCNSMVDSLLAGLDLEMPGPAKVRPVKELVAKAEKDDSIREAVDKAARRVLTLIAKVGKWKDMTPEAPEISREDPETGKLIRRAGGEGVVLLKNDGALPLQPASLKSIAFVGPNAKATVAGGGGSANLNPNYLTQPYETFVKAIKEIDASIEVPYAQGCIIDRWIPPVNAESGLCRSGGPGSEPGWLVEWFRGHDLKGEVVSSSVFKNSDVFLWDGRPEGLNPAEGYSIRFSGQVSVPEDGNYNIALSTITAGNLYVDGELLIDNWDFKERGNLMMNIGSEEVVKTLELKKGQWYNIEVRNASIWPKDSPRDPPMEEIGALGVRLGLAAVYDNNSLIAQATDSVKNSDAVVIVVGLNNEWESESYDRTQTKLPRNQDELIEEIAKVNKNVIVVNQSGAPIDMPWVENPNVKGIIQAWYAGQEAGNVIADVLLGKQNPSGKLPLTFPVKLEDNPSYNYFPGKDKKVEYTEKLMVGYRYYDTDNVKPRFPFGYGLSYSSFKVGKPVLSTTELSEDGSFTATVEVSNTSAVAGAEVIQLYVQRKTSGTSSIKRPIKELKGFKKIHLQPGETKTAEVTVDDKSLGIWSPEAGKWVVEAGDYEVLVGTSSVYDELAAAGTVVAKSAWSWI | <0.5 | <0.5 | 7.8
2 | 809 (protein, listed as Rhodococcus erythropolis) MELTAATGRNDVTENYVDGLSLEEKASLTSGSDFWHSQSVAGIESILLTDGPHGVRKQPEGGDALGLGHSIPATCFPPAVGLGSSWNLDLIRQVGEALGDEAKAEQVSVLLGPGINIKRSPLCGRNFEYVSEDPFLSGRVAAALITGIQSRGVGTSLKHFAANNQEHDRMRVSADVDERTLREIYLAGFEYAVKTAAPTTVMCSYNKINGVYSSQNHWLLTEVLREQWGFDGLVVSDWGAVNDRVAALAAGLDLEMPPTGTDTQIVDAVRGGDLDESVLTTAAERLSTLVKRTAAARTEGHTYDVERHHELARTAAAESAVLLANDGELLPLTPGGQTVAVIGEFACSPRYQGAGSSQVVPTKLDNALDAILDLEGADRVTFAPGFTFDGTPDDHMVTEAVDAARRADVAVLFLGLPSATESEGFDRTDIELPADQIALLEAVHGANPNTVVVLANGGVVSIEPWKDHAAAILEGWLLGQAGGSAIADLLFGITNPSGRLTETIPLRLQDNPSYLHFPGSQQHVRYGEGLYVGYRYYDSALREVAYPFGFGLSYTTFDITDTSVDAGKNSAEVTVTVRNSGDRSGSTVVQVYVHDASASIDRPAQELKGFAKVHLDPDESATVTITLDTRAFAYWSVAAQDWAIEPGDYEIRVGFSSRDIATTDTITLAGNVGVGTLDAMSTIGEWLAHPVGSAVLGAAMAAAAGDGAQAVSPEMMALAGSMPLGKLATFGLGITEEQVAQLVAAAAQPGS | <0.5 | <0.5 | 6.3
3 | 883 (protein, listed as Salinispira pacifica) MKSIQEIRSSLTLEEKASLCSGKDFWNLKSFESKGVPAIMVADGPHGLRKQMESSADHIGIGGSVPATCFPTASAMASSWDTQLLNEVGNALGEECRQEHVAVLLGPGVNIKRSPLCGRNFEYFSEDPYLGGKLAASLIRGVQSMGVGTSLKHFAANNQERRRMIIDAVVDERALRELYLAGFETAVKESSPKTVMCAYNKLNGAFCSENHRLLSEILKEEWGFEGFVVTDWGAVNDRVAGLNAGLDLEMPASGGYNDNLMVEAVQNGTLSENSLNDAVDRILKVVLETHTALQEEFTYDAAAHHRLAQKAESESAVLLKNDKLFPLNSEDFRTEEKHGSQEHKSPKLALIGSFAKEPRYQGSGSSLINPRQLDSAYDAISRELGGDMQLLYAPGYDPADEEPDSRLIQEAVNTAAAADTVIVFAGLPEISESEGFDREHLSMPRSHNDLISAVAQVNPRTAVVLSNGSPVTMPWLDSVPAVLESYLGGQAWGSAISDIIFGRANPSGKLAETFPLSLQDVPSSAQFPGGSASVVYTDSLYVGYRYFSGTGKPVLFPFGHGLSYTRFSYDGLKITGRGTGRTVQCRITNTGSRDGKEVIQLYVHSESSSVFRPEQELKGFSKVSLAPGEEKTVEFRLDDRSFAYWDPGAGDWMVESGNYEIRIAASSADIRLRETIRIDSTQTPSQWAADLRNRIPEFFSPAPELFHDISPESPFRKLLGRPIPPPHWDTREGFTRNSTLEETTRTFIGRILYKAVMREGSRMMSQDADEKSIAMMQAVIREMPLKNLGMMGGDKISMHTVDSLILLLNGKIIRGLGSLLRRK | <0.5 | <0.5 | 7.0
4 | 830 (protein, bacterium) MGTAHDLEQLIAGLTLEEKIALLAGDSLWTVPGIPRLGIRPLKVSDGPAGVRGSRIVPAAAFPAPVLLGATWDPELVERVGQALAEEAETKGAQVVLAPTINLQRTALGGRNFECFSEDPHLTARLAVAYVRGLQSRGIGACIKHYVANDQEFERHTVSVEVDERTLREVYLFPFAVAVAEADPWCVMAAYNRVGGIYCSEHPWLLTTILREELGYQGVVMSDWFATHSTIEALQAGLDLEMPGPPQWRGDKLREAVERGEVALEVIERSARRVLMLYQRAGRFAPGPETSEERAVDRPEHRALIREVGASGMVLLRNEGILPLDLSTVKRVAVIGPHVRRPAVGGGGSAFVRSHPVVTPLEALRESAPQCEFLVEEGAAIFKLIPPLEGEALGSEGAELAFFANPELAGAPVATIRVRTTDLIWLGEVAPGVDASAFSARLRVTMRPEESGRYVLGATAVGQVRVHLDGTLVLDNWTAPQPGRTYFGFGSAEVRAAVDLEAERAYEIVVEYRKFQPGLPLAGFRFGVVHELSDEERIARSVRAAQQADLALLFVGLSPEWESEGFDRESFDLPGAQNALVTAVADANPNTVVVLTAGSPVNLPWLERVGALLLAWYAGEEVGHAVVDVLTGVREPAGRLPFTYPQRLEDTPAFLNYPGEFGRLRYCEGLFIGYRWYDARQIEPLFPFGFGLGYTRFAYRDLVLDRESLGGEEKLTVTCTVENVGERAGSEVVQLYLAFPPGTVRRPLKELRGFRRVHLMPQGSASVSFTVSPRDLAYFDEAAREWVAPPGEYEIMIGAHARDIRLRGRFLLREELRWDAGGRFRDV | <0.5 | <0.5 | 9.3
5 | 845 (protein, listed as Kitasatosporia setae) MTQLSMPSSLTTPASGTDHRVLDLERKARLVSGGDTFRTSPEPALGLFPIVCSDGPVGVRGERWDEADTALLLPCATALAASWDEELVARMGGLLAAEARRKGVHVVLAPTLNLHRSPLGGRNFECFSEDPLLTARIGAAYIGGVQALGVAATAKHYVANDSETERLTVDARVDERTLREVYLAPFEAAVRAGVWAVMSAYNRVNGTSMVEHPLLAEPLKGEWGFDGLVVSDWGSVREADGPGAAACDLSMPGPNPAWGPALAAAVRAGRVPAAALDDKVERLLRLAGRVGAFDPPPAGRAPVPADPATRGALRAAAVAGTVLLHNPDRLLPLDEPALRRVAVLGPNAATARVQGGGSASVFPAAPVSPLNGLRAALDPSVEVTHAPGVRTELRPTPLAAADCVLPDGSGPGVLVRYLAADGSPLHTEARATGRVLEPSADVDLTAVRTIEVASRFTAPSAGRWRLGVVGLGALRLEADGAVLLDEYVAPLSDDPTYLHVAPSFRQVELELAAGQGVDLLARRTVEPEHGRVLVLAADRPAAELEREFAHAVELAAAADVAVVVVGTTDEHESEGFDRAGLRLPGRQDELVEAVAAVNPRTVVVVNTGSPVLLPWRERVGAVLTCWFPGQEGGGALAEVLLGRAEPGGRLPTTWPDAEADCPVYATAPSGGRLAYAEGPHLGHRGWLRAGRTPAYWFGHGLGWGEWCYLALGEPSAPAADGSRTVRVALRNDGPRRSRETVQLYLSRPDSELDRPVRWLAGFGAVEAGPGERVEVELRLPQRALQHWSVEDRAWRTEPGTFVLHVGPHSGELPLAAALPVGA | <0.5 | <0.5 | 9.2
6 | 837 (protein, listed as Bifidobacterium magnum) MTDNLTIGVTEANELSVKEQASLTSGQDAWHLQGIPSKGIPGYMITDGPHGLRKTTAGNGDEMNLDRSVPATCFPPAAGLSSSWNPQLVREVGEAMGEECVQEKVAVILGPGVNIKRNPLGGRNFEYWSEDPYLAGHEAAGIVDGVQSKGVGASLKHFAVNNQETDRFRVSALVSERALREIYLPAFEYIVKHSRPWTVMCSYNKINGVYSSENHWLLTDVLRKEWGFDGIVMSDWGADHNRVAALNAGLNLEMPPSGTDEQVVQGVENGTLKREQLETMAQAMIDLAHKAEDAMNQDGYRYNVDDHNNTARRAARESMVLLKNEEHVLPVKEQDHIAVIGEFARTPRYQGSGSSRINPTRLTSFLDAAQERGVSLTFAPGYTLDQSPADTQLEQEAVDAAAQADTVLMFMGLPDYDESEGFDRTTLAMPAKQLELLGKVTAANKRVVVILSNGSAVTMTPWNESVPAILETWLLGQAGGVALADIVFGDVSPSGRLAQTIPVELTDDPSTINWPGEEHHVNYGEGVFVGYRYYDTFHKPVAYPFGFGLGYADFAIDEVQVRATGVHAAQVRAKVTNLSQDTAASHVVQVYVRPVEPKVPGEASEHVARPVHELKGFAKVYLEPGQSDTVTIDLDERAFAYWSEEFHDWRIEGGEYGIEVGSSSRDIAATVPVTIAGDGKRKPLTVWNTLDEWRKDPVGKAVAGELMAKLREQGADFTGGDTSTEIFMNTLPINSLTALMGPQGNQVEDFLLGEYARRTQ | <0.5 | <0.5 | 7.6
